Test results published in publication PMC4869107, “In vitro flow cytometry-based screening platform for cellulase engineering” (Scientific Reports, 2016).

These substances were tested on T1, Cc1cc(=O)oc2cc(O[C@@H]3O[C@H](CO)[C@@H](O[C@@H]4O[C@H](CO)[C@@H](O)[C@H](O)[C@H]4O)[C@H](O)[C@H]3O)ccc12 (assay: purified protein). Details: potassium phosphate pH 7.2, 30 °C (general assay; kinetics by cited protocol).
T1 construct: 604 residues, ~69 kDa; expressed in E. coli BL21 Gold (DE3)
Format: biochemical, uncultured bacterium
With CelA2 (CelA2-WT) (uncultured bacterium) the Km was 48.37 (±2.43) μM, the kcat was 0.00183 ± 0.00035 s⁻¹ and the kcat/Km was 33.3 M⁻¹ s⁻¹. In the case of “CelA2 (CelA2-WT) (uncultured bacterium; H288F)”, the Km is reported as 8.95 (±1.62) μM, the kcat is reported as 0.00833 ± 0.000367 s⁻¹ and the kcat/Km is reported as 933 M⁻¹ s⁻¹. With “CelA2 (CelA2-WT) (uncultured bacterium; H288F/N273D/N468S)” the Km was 9.66 (±1.19) μM, the kcat was 0.0253 ± 0.000767 s⁻¹ and the kcat/Km was 2620 M⁻¹ s⁻¹.
